From patent US6545141

Target: T7 peptide-added FC99 protein having T7 peptide added to the N-terminal of the amino acid sequence described as SEQ ID NO: 1 (human) (UniProt Q92529)
Test: cell-based or functional assay

Chain of UniProt Q92529 (Q92529 other isoform, or with tags, fused parts or gaps limits assumed): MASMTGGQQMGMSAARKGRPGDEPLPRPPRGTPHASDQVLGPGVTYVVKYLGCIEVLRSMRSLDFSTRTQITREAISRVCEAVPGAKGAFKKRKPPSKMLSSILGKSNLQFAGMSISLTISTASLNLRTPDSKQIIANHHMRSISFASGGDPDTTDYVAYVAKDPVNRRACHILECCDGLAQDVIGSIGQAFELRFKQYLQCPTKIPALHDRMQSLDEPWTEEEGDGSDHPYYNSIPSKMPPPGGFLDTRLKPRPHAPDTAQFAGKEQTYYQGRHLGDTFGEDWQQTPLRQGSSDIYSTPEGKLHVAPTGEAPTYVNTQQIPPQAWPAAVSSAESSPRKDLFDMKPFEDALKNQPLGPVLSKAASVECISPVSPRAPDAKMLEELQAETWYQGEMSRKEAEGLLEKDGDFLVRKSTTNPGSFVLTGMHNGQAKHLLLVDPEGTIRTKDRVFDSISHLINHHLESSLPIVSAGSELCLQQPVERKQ

BDNF-dependent increase in the tyrosine phosphorylation of the FC99 protein (band densities of Lanes 2 and 3, NIH Image): 2 fold
Substance: TrkB receptor activated by the administration of BDNF
